Experimental data reported in the supplement of paper PMC10567573.

B1: KRT34 (parent)
chain: PTVDLNQVLNETRSQYEALVETNR
B2: MYBL2 (parent)
chain: FSPSQFLNFWNKQDTLELESPSLT

Variants of: B1
Assay: protein stability index of a GFP-peptide fusion (GPS, HEK-293T) (PSI 1-6); higher = more stable
Conditions: c terminus: a fixed tail appended
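Also: lentivirally expressed fusions sorted by FACS into six bins by GFP to DsRed ratio, PSI derived from sequencing read proportions per bin multiplied by bin number.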

Protein stability index: each site, then its substitutions
V20: F 3.64, Q 4.5, S 3.98, M 3.58, K 4.86, R 4.9, G 4.44, A 2.68, W 3.83, D 4.71, P 4.91, I 4, H 4.77, T 4.25, C 3.68, Y 4.09, L 4.04, E 3.52, N 4.42
A18: Y 3.6, M 3.74, V 4.01, I 3.7, W 3.5, P 4.6, S 3.32, H 4.4, T 3.81, N 3.3, R 2.31, C 4.01, D 3.92, F 3.59, E 3.69, G 4.03, L 3.66, Q 3.78, K 3.16
T22: G 4.41, P 4.28, V 1.71, F 3.78, W 4.02, H 3.99, I 1.68, N 4.39, S 4.36, R 4.46, Y 4.23, A 4.01, M 3.19, K 3.66, D 4.58, L 2.54, E 4.11, C 3.62
N23: Y 3.52, I 2.79, S 4.39, R 4.11, F 3.71, L 2.41, P 4.04, K 3.95, D 5.04, Q 4.52, M 3.12, A 4.03, V 3, C 3.47, E 5.16, W 2.53, G 4.04, H 4.05, T 3.99
Y16: H 5.25, C 4.44, F 3.65, R 5.42, M 4.76, W 3.63, V 4.9, D 5.26, I 4.23, E 5.44, K 4.57, N 4.99, L 4.19, S 4.98, T 4.58, G 4.89, A 5.1, Q 5.57, P 4.8
L19: W 3.98, H 4.75, R 4.81, I 4.16, Y 4.39, N 5.01, P 4.7, S 4.99, F 3.51, Q 4.63, V 4.44, C 4.72, G 5.03, T 4.5, E 5.63, M 3.84, K 5.17, D 5.03, A 4.47
E21: N 3.83, K 4.3, L 3.56, M 3.92, W 2.62, Q 4.3, R 3.62, Y 3.62, F 2.74, I 3.23, A 3.84, D 3.64, T 3.74, G 4.06, C 3.55, H 3.76, V 3.49, S 4.02, P 4.19
R24: I 3.11, N 4.74, Y 2.29, S 4.81, L 2.68, E 3.88, V 2.17, Q 4.18, P 4.58, D 4.95, K 4.32, H 4.08, T 3.8, G 4.17, A 3.51, F 2.5, C 2.56, W 3.55, M 2.51
E17: Y 3.22, I 2.71, K 4.12, H 3.93, C 2.93, D 4.67, G 4.02, Q 3.88, M 3.68, S 3.85, V 3.7, N 4.05, T 4.23, F 3.08, W 3.35, P 3.62, L 3.85, A 3.77, R 3.83

Variants of: B2
Assay: as above
Conditions: c terminus: a fixed tail appended

Protein stability index of substitutions, site by site:
P3: Y 3.74, K 2.02, L 2.69, W 2.18, D 3.71, I 3.19, E 1.6, M 2.3, Q 3.52, V 1.77, R 2.39, G 2.41, S 2.18, F 3.08, H 1.94, N 2.38, A 3.83, T 2.94
F9: R 2.13, M 1.63, S 1.83, I 3.65, H 2.43, L 2.98, A 1.87, V 3.09, C 2.17, Q 2.15, Y 1.74, G 1.6, W 2.84, E 2.43, N 2.29, P 2.48, T 1.96, D 2.98, K 2.44
N8: V 3.44, Q 2.17, K 2.74, R 2.93, T 3.92, W 2.9, P 2.91, M 3.6, A 3.07, L 3.22, I 4.12, Y 2.06, D 2.08, S 3.58, F 4.01
L7: T 3.42, P 2.25, W 2.38, Q 2.92, G 2.59, C 3.24, M 3.04, V 3.57, F 2.6, R 2.38, I 3.39, K 2.97, N 3.1, Y 2.76, H 3.34, A 3.29
S4: I 4.06, H 2, F 3.04, M 3.27, A 2.14, L 2.12, D 1.79, C 2.91, Y 2.98, K 2.53, P 2.14, V 2.57, N 3.63, W 2.35, T 3.36, Q 4.58, E 2, G 4.19
F1: I 3, R 3.06, H 2.13, G 2.83, Q 3.74, P 4.2, K 3.75, C 2.62, T 3.75, N 3.3, D 4.27, A 3.77, Y 4.39, S 4.11, M 3.3, L 3.51, E 4.58, W 2.73, V 3.72
Q5: A 2.55, D 2.75, R 2.6, T 3.6, H 2.79, Y 2.29, K 2.44, C 3.02, M 2.95, S 2.83, G 3.07, P 3.49, W 2.86, F 2.31, N 2.27
S2: M 3.62, Y 1.63, H 3.45, A 2.65, K 1.99, P 2.13, N 2.38, C 2.66, V 3.06, Q 2.71, L 2.79, R 2.26, W 2.98, D 1.92, I 3.87, E 2.08, T 3, F 2.14
F6: T 1.5, V 2.39, S 2.31, C 1.61, A 2.02, D 2.59, Q 3.08, W 2.7, L 4.19, N 2.21, K 2.86, H 2.6, P 3, E 4, R 3.66
W10: F 2.18, C 2.5, L 2.06, D 3.87, A 2.48, G 2.93, I 2.28, M 2.17, E 3.51, K 2.8, H 2.77
